T1: AccuPrime protein (AccuPrime Protein I; MjaSSB, Mja RPA SSB) (Methanococcus jannaschii, UniProt Q58559 Q58559:1-645)
T1 sequence: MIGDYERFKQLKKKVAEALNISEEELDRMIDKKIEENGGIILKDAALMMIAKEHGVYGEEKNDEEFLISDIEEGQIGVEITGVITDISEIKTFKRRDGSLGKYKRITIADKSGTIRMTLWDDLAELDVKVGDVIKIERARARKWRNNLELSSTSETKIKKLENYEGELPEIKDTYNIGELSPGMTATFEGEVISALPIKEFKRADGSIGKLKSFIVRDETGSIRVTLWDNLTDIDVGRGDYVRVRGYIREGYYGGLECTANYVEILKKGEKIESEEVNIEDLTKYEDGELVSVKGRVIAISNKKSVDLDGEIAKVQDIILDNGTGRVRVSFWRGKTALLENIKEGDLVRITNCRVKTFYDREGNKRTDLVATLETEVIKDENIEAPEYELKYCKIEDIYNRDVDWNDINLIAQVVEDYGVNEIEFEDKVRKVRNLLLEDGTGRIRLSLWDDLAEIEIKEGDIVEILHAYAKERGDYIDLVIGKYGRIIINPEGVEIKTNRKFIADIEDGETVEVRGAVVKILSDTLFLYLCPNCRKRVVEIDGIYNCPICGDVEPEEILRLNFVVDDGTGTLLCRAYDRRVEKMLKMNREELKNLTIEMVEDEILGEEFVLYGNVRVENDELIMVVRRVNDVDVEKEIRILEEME

B1: KP_PALIN_cont (ssDNA)
DNA: CTCCTGGATCGACTTCAGTCCGCTGATGATTAGATGTCGTCCTGGATCGACTTCACTCCGCACCCGCTACCAACAACAGTACCC

Experiments:
[1] = system: AccuPrime Protein II (SsoSSB) (Sulfolobus solfataricus); details: CITED Haseltine and Kowalczykowski 2002; about 3 orders of magnitude higher than AccuPrime protein I; cited from earlier work
[2] = target: T1, AccuPrime protein (AccuPrime Protein I; …); test: EMSA; 20 nM oligo, 0-40 nM protein; near-stoichiometric shift, super-shift, weak negative cooperativity; 20 mM Tris-HCl pH 8.4, 50 mM KCl, 1.5 mM MgCl2, 70 C; text calls it 84-mer or 86-mer; details: tags: expressed in E. coli BL21(DE3), Ni-NTA purified; label: 5'-32P
Experimental: Single stranded DNA binding. AccuPrime protein affinity for secondary structure of the single stranded DNA was tested with the 84 mer synthetic oligonucleotide KP_PALIN_cont: 5′-CTCCTGGATCGACTTCAGTCCGCTGATGATTAGATGTCGTCCTGGATCGACTTCACTCCGCACCCGCTACCAACAACAGTACCC-3′. The oligonucleotide was radiolabeled at the 5′ end in the same manner as the 5′ (ss) substrate for the exo-nuclease activity assay above with the oligonucleotide concentration at 5 μM.
Single stranded DNA binding. The binding affinity of AccuPrime protein to single stranded DNA (ssDNA) was measured using electrophoretic mobility shift assay (EMSA) on 6% horizontal polyacrylamide gel in TBE. The ssDNA molecules used in the assay were synthetic 86-mer oligonucleotides. The 5′ radiolabeled oligonucleotides were incubated with increasing amounts of the protein in 1×PCR buffer (20 mM Tris-HCl, pH 8.4, 50 mM KCl, 1.5 mM MgCl₂) at 70° C. for 5 min, and an aliquot of the reaction mix was loaded on the gel with currents on. The electrophoresis was continued for 1 hr and the gel was autoradiographed after dried.

Molecule	Kd [1]	binding result [2]
single-stranded DNA (unspecified)	500 nM	
B1		binds

Reference: patent US20070178491, “Compositions and Methods for Synthesizing Nucleic Acids” (INVITROGEN CORPORATION, published 2007)
